The supplement of paper PMC7877785
± gives the uncertainty stated by the source.

Assay: self-splicing fitness, log relative to wild type (ln ratio); higher = more splicing; Tetrahymena group I intron in knt gene, E. coli kanamycin selection, DiMSum; sequences stand for … in CUCUCU…GGAGGGAAAAGUUAUCAGGCAUGCACCUGGUAGCUAGUCUUUAAACCAAUAGAUUGCAUCGGUUUAAAAGGCAAGACCGUCAAAUUGCGGGAAAGGGGUCAACAGCCGUUCAGUACCAAGUCUCAGGGGAAACUUUGAGAUGGCCUUGCAAAGGGUAUGGUAAUAAGCUGACGGACAUGGUCCUAACCACGCAGCCAAGUCCUAAGUCAACAGAUCUUCUGUUGAUAUGGAUGCAGUUCACAGACUAAAUGUCGGUCGGGGAAGAUGUAUUCUUCUCAUAAGAUAUAGUCGGACCUCUCCUUAAUGGGAGCUAGCGGAUGAAGUGAUGCAACACUGGAGCCGCUGGGAACUAAUUUGUAUGCGAAAGUAUAUUGAUUAGUUUUGGAGUACUCGUGGUCG
In short: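 Library with all eight P1ex-region intron nucleotides randomised, intron inside the knt kanamycin-resistance gene on pET-22b(+), in E. coli BL21(DE3). Cells grew overnight at 37°C or 30°C on LB agar with or without 25 μg/mL kanamycin (plus 100 μg/mL carbenicillin, 50 μM IPTG, 0.2% rhamnose), in six replicate transformations. Pooled colonies were amplicon-sequenced on Illumina HiSeq 2500. DiMSum fitness is the error-weighted combination of wild-type-normalised replicate fold changes, kanamycin versus none.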

Sequence	self-splicing fitness (ln) (30 °C)	self-splicing fitness (ln) (37 °C)
CAUUAGCAAUAUUACGCAUC	-2.71 ± 0.21	-1.6 ± 0.27
CAUUAGCAAUAUUACGCCUG	-1.4 ± 0.12	-0.136 ± 0.12
CAUUAGCAAUAUUACGGCUU	-4.46 ± 0.39	-1.98 ± 0.33
CAUUAGCAAUAUUACGUAGU	-3.66 ± 0.17	-1.84 ± 0.17
CAUUAGCAAUAUUACGUCAA	-2.38 ± 0.23	-2.96 ± 0.4
CAUUAGCAAUAUUACGUCCG	-0.0564 ± 0.12	-0.142 ± 0.15
CAUUAGCAAUAUUACGUGAG	-1.55 ± 0.14	0.776 ± 0.12
CAUUAGCAAUAUUACGUGCA	-2.31 ± 0.28	–
CAUUAGCAAUAUUACGUGCG	-0.965 ± 0.074	-0.237 ± 0.082
CAUUAGCAAUAUUACGUGGA	-3.35 ± 0.19	-2.13 ± 0.13
CAUUAGCAAUAUUACGUUCA	-2.33 ± 0.2	-2.35 ± 0.24
CCAAAGCAAUAUUACGAACA	-3.48 ± 0.22	-3.23 ± 0.28
CCAAAGCAAUAUUACGAUCA	-2.94 ± 0.13	-3.1 ± 0.31
CCAAAGCAAUAUUACGAUUA	-3.39 ± 0.2	-3.27 ± 0.25
CCAAAGCAAUAUUACGCAGA	-3.75 ± 0.19	-2.65 ± 0.18
CCAAAGCAAUAUUACGCAUA	-3.42 ± 0.15	-2.38 ± 0.17
CCAAAGCAAUAUUACGCGAC	-4.37 ± 0.27	-2.87 ± 0.21
CCAAAGCAAUAUUACGCGCG	-1.59 ± 0.075	-0.994 ± 0.1
CCAAAGCAAUAUUACGCGGC	-3.34 ± 0.18	-3.15 ± 0.32
CCAAAGCAAUAUUACGCGUC	-3.17 ± 0.21	-2.98 ± 0.34
CCAAAGCAAUAUUACGGAGG	-3.79 ± 0.25	-2.04 ± 0.21
CCAAAGCAAUAUUACGGAUU	-3.94 ± 0.25	-3.55 ± 0.35
CCAAAGCAAUAUUACGGCAG	-0.931 ± 0.074	-0.49 ± 0.11
CCAAAGCAAUAUUACGGCUC	-3.44 ± 0.29	-2.32 ± 0.25
CCAAAGCAAUAUUACGGGUA	-2.96 ± 0.24	-3.34 ± 0.43

Sequence	self-splicing fitness (ln) (30 °C)	self-splicing fitness (ln) (37 °C)
CCAAAGCAAUAUUACGGUAC	-3.5 ± 0.24	-3.13 ± 0.29
CCAAAGCAAUAUUACGGUGU	-3.74 ± 0.19	-2.97 ± 0.15
CCAAAGCAAUAUUACGUACU	-3.69 ± 0.2	-2.76 ± 0.27
CCAAAGCAAUAUUACGUAUC	-1.28 ± 0.11	-2.76 ± 0.24
CCAAAGCAAUAUUACGUCAA	-3.22 ± 0.14	-2.02 ± 0.13
CCAAAGCAAUAUUACGUGGA	-3.55 ± 0.15	-2.81 ± 0.21
CCACAGCAAUAUUACGAACU	-2.98 ± 0.17	-3.23 ± 0.32
CCACAGCAAUAUUACGACCC	-4.02 ± 0.39	–
CCACAGCAAUAUUACGACGA	-3.12 ± 0.19	-2.09 ± 0.16
CCACAGCAAUAUUACGAGAA	-2.74 ± 0.26	-3.69 ± 0.39
CCACAGCAAUAUUACGAUCG	-0.326 ± 0.06	0.703 ± 0.077
CCACAGCAAUAUUACGAUUC	-3.17 ± 0.11	-2.23 ± 0.14
CCACAGCAAUAUUACGCAGA	-3.08 ± 0.17	-2.89 ± 0.16
CCACAGCAAUAUUACGCAUC	-3.23 ± 0.19	-2.31 ± 0.2
CCACAGCAAUAUUACGCUAA	-3.8 ± 0.22	-1.62 ± 0.15
CCACAGCAAUAUUACGCUAG	-3.27 ± 0.12	-1.36 ± 0.1
CCACAGCAAUAUUACGCUUA	-3.43 ± 0.16	-2.98 ± 0.18
CCACAGCAAUAUUACGCUUC	-3.25 ± 0.47	–
CCACAGCAAUAUUACGGCGC	-3.56 ± 0.16	-2.17 ± 0.13
CCACAGCAAUAUUACGGCUU	-3.62 ± 0.14	-2.71 ± 0.18
CCACAGCAAUAUUACGGGCC	-4.14 ± 0.25	-2.5 ± 0.18
CCACAGCAAUAUUACGGUGG	-4.51 ± 0.17	-2.28 ± 0.11
CCACAGCAAUAUUACGUCCA	-3.23 ± 0.19	-1.59 ± 0.15
CCACAGCAAUAUUACGUCUC	-3.01 ± 0.17	-2.66 ± 0.16
CCACAGCAAUAUUACGUGAG	-0.847 ± 0.051	-0.739 ± 0.065

Sequence	self-splicing fitness (ln) (30 °C)	self-splicing fitness (ln) (37 °C)
CCACAGCAAUAUUACGUGGC	-3.84 ± 0.12	-2.86 ± 0.12
CCACAGCAAUAUUACGUUCA	-3.27 ± 0.16	-2.5 ± 0.19
CCACAGCAAUAUUACGUUCU	-2.77 ± 0.1	-3.7 ± 0.19
CCAGAGCAAUAUUACGACCG	-0.53 ± 0.14	-0.622 ± 0.22
CCAGAGCAAUAUUACGACGG	-2.88 ± 0.18	-2.02 ± 0.28
CCAGAGCAAUAUUACGACUG	-1.05 ± 0.1	-0.605 ± 0.15
CCAGAGCAAUAUUACGACUU	-3.55 ± 0.17	-2.61 ± 0.23
CCAGAGCAAUAUUACGAGGA	-2.96 ± 0.23	-2.46 ± 0.27
CCAGAGCAAUAUUACGAGUG	-1.2 ± 0.073	-0.146 ± 0.092
CCAGAGCAAUAUUACGCAAA	-2.79 ± 0.48	-1.57 ± 0.33
CCAGAGCAAUAUUACGCAAC	-4.18 ± 0.24	-2.94 ± 0.12
CCAGAGCAAUAUUACGCAGG	-3.56 ± 0.15	-2.53 ± 0.17
CCAGAGCAAUAUUACGCAUG	-2.64 ± 0.16	-1.59 ± 0.16
CCAGAGCAAUAUUACGCGCG	-1.19 ± 0.1	-0.59 ± 0.14
CCAGAGCAAUAUUACGGAUG	-2.56 ± 0.15	-1.3 ± 0.18
CCAGAGCAAUAUUACGGCGA	-3.16 ± 0.26	-2.65 ± 0.29
CCAGAGCAAUAUUACGGCUG	-1.9 ± 0.083	-1 ± 0.12
CCAGAGCAAUAUUACGGGCU	-3.24 ± 0.3	–
CCAGAGCAAUAUUACGGGGU	-2.35 ± 0.43	-2.78 ± 0.34
CCAGAGCAAUAUUACGUAGC	-3.23 ± 0.19	-2.38 ± 0.26
CCAGAGCAAUAUUACGUCAC	-2.34 ± 0.3	–
CCAGAGCAAUAUUACGUCCA	-2.05 ± 0.33	-1.44 ± 0.35
CCAGAGCAAUAUUACGUCCG	-1.7 ± 0.12	0.0963 ± 0.14
CCAGAGCAAUAUUACGUGGA	-4.15 ± 0.23	-2.03 ± 0.16
CCAGAGCAAUAUUACGUUAC	-3.64 ± 0.46	-1.7 ± 0.34

Sequence	self-splicing fitness (ln) (30 °C)	self-splicing fitness (ln) (37 °C)
CCAGAGCAAUAUUACGUUUC	-3.23 ± 0.22	-3.61 ± 0.31
CCAGAGCAAUAUUACGUUUU	-3.06 ± 0.18	-2.62 ± 0.21
CCAUAGCAAUAUUACGAACG	-0.593 ± 0.09	-0.0842 ± 0.11
CCAUAGCAAUAUUACGACAC	-2.94 ± 0.29	-1.99 ± 0.37
CCAUAGCAAUAUUACGAUGA	-0.628 ± 0.092	-0.23 ± 0.1
CCAUAGCAAUAUUACGCAAA	-1.93 ± 0.21	-2.15 ± 0.3
CCAUAGCAAUAUUACGCACC	-1 ± 0.34	–
CCAUAGCAAUAUUACGCCCU	-2.8 ± 0.29	-2.84 ± 0.39
CCAUAGCAAUAUUACGCGAG	-2.77 ± 0.16	-1.22 ± 0.13
CCAUAGCAAUAUUACGCUAC	-4.24 ± 0.28	-3.23 ± 0.32
CCAUAGCAAUAUUACGGCUG	-3.05 ± 0.15	-1.62 ± 0.14
CCAUAGCAAUAUUACGGGGC	-2.41 ± 0.15	-2.95 ± 0.29
CCAUAGCAAUAUUACGGGGU	-3.73 ± 0.18	-2.46 ± 0.17
CCAUAGCAAUAUUACGGGUA	-3.25 ± 0.27	-2.87 ± 0.27
CCAUAGCAAUAUUACGGUAU	-3.54 ± 0.24	-1.34 ± 0.19
CCAUAGCAAUAUUACGGUUA	-3.57 ± 0.29	-2.73 ± 0.21
CCAUAGCAAUAUUACGUAAU	-3.14 ± 0.15	-3.15 ± 0.23
CCAUAGCAAUAUUACGUAGC	-2.52 ± 0.21	-2.05 ± 0.47
CCAUAGCAAUAUUACGUCUU	-3.12 ± 0.15	-2.56 ± 0.17
CCAUAGCAAUAUUACGUGUG	-2.23 ± 0.09	-1.07 ± 0.08
CCCAAGCAAUAUUACGAGAG	-2.99 ± 0.079	-1.93 ± 0.079
CCCAAGCAAUAUUACGAGUG	-2.61 ± 0.16	-2.94 ± 0.17
